Test results from patent US10118947B2, “Modulation of structured polypeptide specificity” (BICYCLE THERAPEUTICS LIMITED, priority 2013, dated 2018).
Numbered stars: 1 amine (or outer) side, 2 acyl side, 3 side chain; on linkers, the order of the positions; unused ones are H or OH. Bridge positions count the residues as written; N and C are the ends. Square brackets hold non-standard residues; d marks the D form. Peptide text beside a SMILES is read from it. TBMB = c1c(C[*:1])cc(C[*:3])cc1C[*:2]; Tic = O=C(O)[C@@H]1Cc2ccccc2CN1; Dpg = CCCC(N)(CCC)C(=O)O; Aze = O=C(O)[C@@H]1CCN1; βAla = NCCC(=O)O

System: not listed separately
Assay: Plasma stability profiling Method #1 (MALDI-TOF, 35% plasma), rat plasma
Format: in vitro ADME
Conditions: Table 13; method #1
Procedure: A rapid plasma stability profiling assay was developed that employed mass spectrometric detection (MALDI-TOF, Voyager DE, Applied Biosystems) of the parent mass, until the time when the parent peptide mass was no longer observable. Specifically, 200 uM of peptide was incubated in the presence of 35% rat or human plasma (Sera labs, using citrate as anticoagulant) at 37 deg C., which was supplemented with 1×PBS (derived from a 10×PBS Stock, Sigma). At various time points (i.e. t=0, 3, 24 hrs, henceafter daily up to 10 days), 2 uL of sample was added to 18 uL of 30 mM ammonium bicarbonate in a 1:1 mixture of acetonitrile:H2O. Samples were frozen at −80 deg C. until the time of analysis. For mass spectrometric analysis that determines the approximate detection window of the peptide, the acetonitrile:H2O-diluted sample of a given time point was spotted directly (0.7 uL) onto the MALDI plate. Matrix (alpha-cyanocinnamic acid, Sigma, prepared as a saturated solution in 1:1 acetonitrile:water containing 0.1% trifluoroacetic acid) was layered over the sample (1 uL). At a similar laser intensity setting on the MALDI TOF, the time could then be determined until parent peptide was no longer detectable. It should be noted that this is a qualitative assay serves to detect relative changes in plasma stability.

| Compound | Observable in rat plasma, for days [days] |
| --- | --- |
| CC(=O)N[C@H]1CSCc2cc3cc(c2)CSC[C@H](NC(=O)[C@H](CCCNC(=N)N)NC(=O)[C@H](C)NC(=O)[C@@H]2CCN2C(=O)[C@H](Cc2c[nH]c4ccccc24)NC(=O)[C@H](CO)NC1=O)C(=O)N[C@@H](CC(C)C)C(=O)N[C@@H](Cc1c[nH]cn1)C(=O)N[C@@H](CCC(N)=O)C(=O)N[C@@H](CC(=O)O)C(=O)N[C@@H](CC(C)C)C(=O)N[C@H](C(N)=O)CSC3 [Ac-(06-34-18) Aze3] (Ac-CSW[Aze]ARCLHQDLC-NH2; linker 1-7-13 via TBMB) | 2 |
| CC(=O)N[C@H]1CSCc2cc3cc(c2)CSC[C@H](NC(=O)[C@H](CCCNC(=N)N)NC(=O)[C@H](C)NC(=O)[C@@H]2Cc4ccccc4CN2C(=O)[C@H](Cc2c[nH]c4ccccc24)NC(=O)[C@H](CO)NC1=O)C(=O)N[C@@H](CC(C)C)C(=O)N[C@@H](Cc1c[nH]cn1)C(=O)N[C@@H](CCC(N)=O)C(=O)N[C@@H](CC(=O)O)C(=O)N[C@@H](CC(C)C)C(=O)N[C@H](C(N)=O)CSC3 [Ac-(06-34-18) Tic3] (Ac-CSW[Tic]ARCLHQDLC-NH2; linker 1-7-13 via TBMB) | 2 |

Same assay, conditions: Table 14; method #1

| Compound | Observable in rat plasma, for days [days] |
| --- | --- |
| CCCC1(CCC)NC(=O)[C@@H](NC(C)=O)CSCc2cc3cc(c2)CSC[C@H](NC(=O)[C@H](CCCNC(=N)N)NC(=O)[C@H](C)NC(=O)[C@@H]2CCCN2C(=O)[C@H](Cc2c[nH]c4ccccc24)NC1=O)C(=O)N[C@@H](CC(C)C)C(=O)N[C@@H](Cc1c[nH]cn1)C(=O)N[C@@H](CCC(N)=O)C(=O)N[C@@H](CC(=O)O)C(=O)N[C@@H](CC(C)C)C(=O)N[C@H](C(N)=O)CSC3 [Ac-(06-34-18) Dpg1] (Ac-C[Dpg]WPARCLHQDLC-NH2; linker 1-7-13 via TBMB) | 2 |
| CC(=O)N[C@H]1CSCc2cc3cc(c2)CSC[C@H](NC(=O)[C@H](CCCNC(=N)N)NC(=O)CCNC(=O)[C@@H]2CCCN2C(=O)[C@H](Cc2c[nH]c4ccccc24)NC(=O)[C@H](CO)NC1=O)C(=O)N[C@@H](CC(C)C)C(=O)N[C@@H](Cc1c[nH]cn1)C(=O)N[C@@H](CCC(N)=O)C(=O)N[C@@H](CC(=O)O)C(=O)N[C@@H](CC(C)C)C(=O)N[C@H](C(N)=O)CSC3 [Ac-(06-34-18) β-Ala4] (Ac-CSWP[βAla]RCLHQDLC-NH2; linker 1-7-13 via TBMB) | 10 |

Same assay, conditions: Table 21; method #1

| Compound | Observable in rat plasma, for days [days] |
| --- | --- |
| CC(=O)N[C@H]1CSCc2cc3cc(c2)CSC[C@H](NC(=O)[C@H](CCCNC(=N)N)NC(=O)[C@H](C)NC(=O)[C@@H]2CCCN2C(=O)[C@H](Cc2ccccc2)NC(=O)[C@H](CO)NC1=O)C(=O)N[C@@H](CC(C)C)C(=O)N[C@@H](Cc1c[nH]cn1)C(=O)N[C@@H](CCC(N)=O)C(=O)N[C@@H](CC(=O)O)C(=O)N[C@@H](CC(C)C)C(=O)N[C@H](C(N)=O)CSC3 [Ac-(06-34-18) FPAR] (Ac-CSFPARCLHQDLC-NH2; linker 1-7-13 via TBMB) | 2 |
| CC(=O)N[C@H]1CSCc2cc3cc(c2)CSC[C@H](NC(=O)[C@H](CCCNC(=N)N)NC(=O)[C@H](CO)NC(=O)[C@@H]2CCCN2C(=O)[C@H](Cc2c[nH]c4ccccc24)NC(=O)[C@H](CO)NC1=O)C(=O)N[C@@H](CC(C)C)C(=O)N[C@@H](Cc1c[nH]cn1)C(=O)N[C@@H](CCC(N)=O)C(=O)N[C@@H](CC(=O)O)C(=O)N[C@@H](CC(C)C)C(=O)N[C@H](C(N)=O)CSC3 [Ac-(06-34-18) WPSR] (Ac-CSWPSRCLHQDLC-NH2; linker 1-7-13 via TBMB) | 2 |
| CC(=O)N[C@H]1CSCc2cc3cc(c2)CSC[C@H](NC(=O)[C@H](CCCNC(=N)N)NC(=O)[C@H](Cc2ccc(O)cc2)NC(=O)[C@@H]2CCCN2C(=O)[C@H](Cc2c[nH]c4ccccc24)NC(=O)[C@H](CO)NC1=O)C(=O)N[C@@H](CC(C)C)C(=O)N[C@@H](Cc1c[nH]cn1)C(=O)N[C@@H](CCC(N)=O)C(=O)N[C@@H](CC(=O)O)C(=O)N[C@@H](CC(C)C)C(=O)N[C@H](C(N)=O)CSC3 [Ac-(06-34-18) WPYR] (Ac-CSWPYRCLHQDLC-NH2; linker 1-7-13 via TBMB) | 2 |

Target: T1, human plasma Kallikrein (Homo sapiens, UniProt P03952)
T1 construct: purchased Stratech, UK
Assay: Phage selections against human plasma Kallikrein (abundance in selection output)
Format: binding
Conditions: Table 17; relative abundance in the total selection outputs
Procedure: Glycerol stocks of phage libraries were diluted to OD600=0.1 in 500 ml 2YT/chloramphenicol (30 μg/ml) cultures and phage were produced at 30° C. over night (15-16 hrs). Phage were purified and chemically modified as described in Heinis, et al., Nat Chem Biol 2009, 5 (7), 502-7 Biotinylated hPK (3 μg) (IHPKA, from human plasma, Innovative Research, Novi, Mich., USA) was incubated with 50 μl pre-washed magnetic streptavidin beads (Dynal, M-280 from Invitrogen, Paisley, UK) for 10 minutes at RT. Beads were washed 3 times prior to blocking with 0.5 ml washing buffer (10 mM Tris-Cl, pH 7.4, 150 mM NaCl, 10 mM MgCl2, 1 mM CaCl2) containing 1% BSA and 0.1% Tween 20 for 30 minutes at RT with rotation. […] Blocked beads were then mixed with the blocked chemically modified phage and incubated for 30 minutes on a rotating wheel at
RT. Beads were washed 8 times with washing buffer containing 0.1% Tween 20 and twice with washing buffer before incubation with 100 μl of 50 mM glycine, pH 2.2 for 5 minutes. Eluted phage were transferred to 50 μl of 1 M Tris-Cl, pH 8 for neutralization, incubated with 30 ml TG1 cells at OD600=0.4 for 90 minutes at 37° C. and the cells were plated on large 2YT/chloramphenicol plates. One or two additional rounds of panning were performed using the same procedures. In the second round of selection, neutravidin-coated magnetic beads were used to prevent the enrichment of streptavidin-specific peptides. The neutravidin beads were prepared by reacting 0.8 mg neutravidin (Pierce, Rockford, Ill., USA) with 0.5 ml tosyl-activated magnetic beads (Dynal, M-280 from Invitrogen, Paisley, UK) according to the supplier's instructions.
The WPAR (SEQ ID No. 19) motif identified from Example 1 was analysed in the context of the 06-34-03 peptide, in order to identify alternatives or improvements to the WPAR motif. A library was constructed where positions 1, 6, 7, 8, 9 &10 of 06-34-03 were fixed and positions 2, 3, 4 & 5 were randomised (see ‘Randomisation of peptide domains—Library construction’ in Methods above). Selections against human plasma Kallikrein were performed at a variety of stringencies (see Phage selections' in Methods above). All output sequences were identified and analysed for target binding (see ‘Randomisation of peptide domains—Assay of binding of individual clones’ in Methods above). Table 17 lists each unique sequence, its relative abundance in the selection output (frequency), and a rank number according to target binding strength.

T1 sequence (P03952 20-638): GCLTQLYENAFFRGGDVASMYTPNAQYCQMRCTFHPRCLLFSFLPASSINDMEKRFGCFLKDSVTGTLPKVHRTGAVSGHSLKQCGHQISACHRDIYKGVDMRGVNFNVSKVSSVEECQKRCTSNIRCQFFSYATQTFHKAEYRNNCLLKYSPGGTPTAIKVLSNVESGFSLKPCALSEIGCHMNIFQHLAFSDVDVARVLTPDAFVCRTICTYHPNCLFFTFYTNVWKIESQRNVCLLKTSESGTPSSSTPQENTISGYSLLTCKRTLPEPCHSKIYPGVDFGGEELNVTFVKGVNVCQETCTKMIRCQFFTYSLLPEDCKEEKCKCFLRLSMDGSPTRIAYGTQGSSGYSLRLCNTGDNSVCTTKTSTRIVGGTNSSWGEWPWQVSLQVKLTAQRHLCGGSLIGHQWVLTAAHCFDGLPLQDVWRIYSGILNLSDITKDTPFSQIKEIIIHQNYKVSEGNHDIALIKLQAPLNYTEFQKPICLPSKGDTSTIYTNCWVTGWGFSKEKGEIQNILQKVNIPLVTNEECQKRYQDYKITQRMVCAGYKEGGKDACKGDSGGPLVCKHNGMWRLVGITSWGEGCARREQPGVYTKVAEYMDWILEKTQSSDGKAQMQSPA

| Compound | FREQUENCY |
| --- | --- |
| CRFPFKCTHQDLC | 1 |
| CSFLYKCTHQDLC | 2 |
| CSFMYKCTHQDLC | 1 |
| CSFPFKCTHQDLC | 4 |
| CSFPFWCTHQDLC | 1 |
| CSFPIRCTHQDLC | 1 |
| CSFPWRCTHQDLC | 1 |
| CSFPYKCTHQDLC | 1 |
| CSFPYRCTHQDLC | 12 |
| CSFSYKCTHQDLC | 1 |
| CSHPFRCTHQDLC | 1 |
| CSHPYRCTHQDLC | 2 |
| CSHRRWCTHQDLC | 1 |
| CSIPFKCTHQDLC | 1 |
| CSLFDHCTHQDLC | 1 |
| CSLPFKCTHQDLC | 1 |
| CSLPIRCTHQDLC | 1 |
| CSMPYRCTHQDLC | 2 |

| Compound | FREQUENCY |
| --- | --- |
| CSQVVGCTHQDLC | 1 |
| CSWAARCTHQDLC | 1 |
| CSWHARCTHQDLC | 1 |
| CSWLARCTHQDLC | 8 |
| CSWPARCTHQDLC | 24 |
| CSWPFRCTHQDLC | 7 |
| CSWPSRCTHQDLC | 51 |
| CSWPYKCTHQDLC | 1 |
| CSWPYRCTHQDLC | 3 |
| CSWQARCTHQDLC | 1 |
| CSWSARCTHQDLC | 10 |
| CSWSYRCTHQDLC | 1 |
| CSWWARCTHQDLC | 1 |
| CSYPFRCTHQDLC | 1 |
| CSYPIRCTHQDLC | 2 |
| CSYPWRCTHQDLC | 1 |
| CSYPYRCTHQDLC | 2 |

Target: T1, human plasma Kallikrein
Assay: Functional enzyme inhibition assay with fluorogenic substrate Z-PheArg-AMC, human plasma Kallikrein
Format: biochemical
Conditions: not given
Outline: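 Rates of AMC release (excitation 360 nm, emission 460 nm) from 100 μM final Z-PheArg-AMC, 4% DMSO, were taken over the linear phase, typically 5 to 45 minutes. IC50 from four-parameter non-linear regression; Ki also derived.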

| Compound | affinity surpassing that of wildtype by a factor | reduction in potency/affinity compared to wildtype [fold] |
| --- | --- | --- |
| CC(=O)N[C@H]1CSCc2cc3cc(c2)CSC[C@H](NC(=O)[C@H](CCCNC(=N)N)NC(=O)[C@H](C)NC(=O)[C@@H]2CCN2C(=O)[C@H](Cc2c[nH]c4ccccc24)NC(=O)[C@H](CO)NC1=O)C(=O)N[C@@H](CC(C)C)C(=O)N[C@@H](Cc1c[nH]cn1)C(=O)N[C@@H](CCC(N)=O)C(=O)N[C@@H](CC(=O)O)C(=O)N[C@@H](CC(C)C)C(=O)N[C@H](C(N)=O)CSC3 [Ac-(06-34-18) Aze3] (Ac-CSW[Aze]ARCLHQDLC-NH2; linker 1-7-13 via TBMB) | 3 | – |
| CC(=O)N[C@H]1CSCc2cc3cc(c2)CSC[C@H](NC(=O)[C@H](CCCNC(=N)N)NC(=O)[C@H](C)NC(=O)[C@@H]2CCCN2C(=O)[C@H](Cc2ccccc2)NC(=O)[C@H](CO)NC1=O)C(=O)N[C@@H](CC(C)C)C(=O)N[C@@H](Cc1c[nH]cn1)C(=O)N[C@@H](CCC(N)=O)C(=O)N[C@@H](CC(=O)O)C(=O)N[C@@H](CC(C)C)C(=O)N[C@H](C(N)=O)CSC3 [Ac-(06-34-18) FPAR] (Ac-CSFPARCLHQDLC-NH2; linker 1-7-13 via TBMB) | – | 40 |

Same assay, conditions: Table 14; read-out: Ki (nM) (human kallikrein)

| Compound | Ki [nM] |
| --- | --- |
| CCCC1(CCC)NC(=O)[C@@H](NC(C)=O)CSCc2cc3cc(c2)CSC[C@H](NC(=O)[C@H](CCCNC(=N)N)NC(=O)[C@H](C)NC(=O)[C@@H]2CCCN2C(=O)[C@H](Cc2c[nH]c4ccccc24)NC1=O)C(=O)N[C@@H](CC(C)C)C(=O)N[C@@H](Cc1c[nH]cn1)C(=O)N[C@@H](CCC(N)=O)C(=O)N[C@@H](CC(=O)O)C(=O)N[C@@H](CC(C)C)C(=O)N[C@H](C(N)=O)CSC3 [Ac-(06-34-18) Dpg1] (Ac-C[Dpg]WPARCLHQDLC-NH2; linker 1-7-13 via TBMB) | 1.09 |

Same assay, conditions: read-out: Ki / affinity to human Kallikrein

| Compound | Ki [nM] |
| --- | --- |
| CCCC1(CCC)NC(=O)[C@@H](NC(C)=O)CSCc2cc3cc(c2)CSC[C@H](NC(=O)[C@H](CCCNC(=N)N)NC(=O)[C@H](C)NC(=O)[C@@H]2CCCN2C(=O)[C@H](Cc2c[nH]c4ccccc24)NC1=O)C(=O)N[C@@H](CC(C)C)C(=O)N[C@@H](Cc1c[nH]cn1)C(=O)N[C@@H](CCC(N)=O)C(=O)N[C@@H](CC(=O)O)C(=O)N[C@@H](CC(C)C)C(=O)N[C@H](C(N)=O)CSC3 [Ac-(06-34-18) Dpg1] (Ac-C[Dpg]WPARCLHQDLC-NH2; linker 1-7-13 via TBMB) | 1.1 |
